The results in this text go back to the RNAGym collection of RNA variant scans (doi:10.7554/elife.80360).

First the molecules themselves.
B1: HDV Ribozyme (parent)
chain: GGCCGGCAUGGUCCCAGCCUCCUCGCUGGCGCCGGCUGGGCAACAUUCCGAGGGGACCGUCCCCUCGGUAAUGGCGAAUGGGACCCA

Variants of B1 are the subject of this data set. In words: self-cleavage, relative activity (ratio to wild type); higher = more cleavage; co-transcriptional.
Turning to C21A U23A, the self-cleavage was determined as 0.0369.
Take C21A U46A: the self-cleavage is 0.322.
For the variant C22U G29U, the self-cleavage stood at 0.101.
C22U G29A: the self-cleavage came out at 0.249.
For U20G G52U the value was 0.332.
As for C22G A71U, the self-cleavage amounted to 0.0923.
For C21U G80A the value was 0.185; for C21A G80C, 0.0496; for C22U A45G, 0.656.
As to U20G C66A, the self-cleavage came out at 0.249.
With C21G G67U, the self-cleavage came out at 0.0723.
In the case of U20G G40U, the self-cleavage was determined as 0.131.
As for U20G G40C, the self-cleavage worked out at 0.0462.
As for C21A C44U, the self-cleavage worked out at 0.0346.
Regarding C22U A77U, the self-cleavage came to 0.233.
For C22U C84G the value was 0.291; for C21G A83G, 0.0987; for C22G U79A, 0.0615.
Take C22A G38U: the self-cleavage came to 0.554.
With C22A G38A, the self-cleavage worked out at 0.0608.
With C21U U60G, the self-cleavage was found to be 0.122.
C22G A45U: the self-cleavage amounted to 0.0415.
On to C21U U46C, for which the self-cleavage stood at 0.386.
Take C21U U46A: the self-cleavage was found to be 0.511.
As to C21U U46G, the self-cleavage stood at 0.0978.
Consider C22U G81A, for which the self-cleavage is 0.0911.
C21A A78U: the self-cleavage came out at 0.0573.
Take C21A A78G: the self-cleavage is 0.189.
On to C21A A78C, for which the self-cleavage worked out at 0.
For C22A C41U the value was 0.252; for U20G U60G, 0.0831.
Regarding C21U A42G, the self-cleavage came out at 0.0652.
C21U A42C: the self-cleavage came to 0.203.
For the variant C22U C58U, the self-cleavage stood at 0.684.
Take C22U C58A: the self-cleavage is 0.914.
As to C22G C84U, the self-cleavage came out at 0.0563.
On to C21G G59C, for which the self-cleavage stood at 0.106.
As to C21G G28U, the self-cleavage turned out to be 0.0287.
For C22U A42C, the self-cleavage was 0.122.
As to C22U A42U, the self-cleavage came out at 0.138.
Consider U20G G80A, for which the self-cleavage was 0.0831.
Regarding U20G G80U, the self-cleavage was found to be 0.053.
On to C21A A71C, for which the self-cleavage came out at 0.0692.
Turning to C21U C86A, the self-cleavage was found to be 0.505.
The same measure for C21U C86G: 0.253; for C21G G25A: 0.185; for C22G C63G: 0.
For C22G C63A the value was 0.166.
For C22U C32U the value was 0.65.
Turning to C21U C58G, the self-cleavage was 0.227.
On to C22G G81A, for which the self-cleavage worked out at 0.0528.
For C22G G31A the value was 0.121; for C22G C48A, 0.141; for C21G A45G, 0.185.
Turning to C21U C61A, the self-cleavage came to 0.176.
Regarding C21G G73A, the self-cleavage came to 0.111.
Take C22G A42U: the self-cleavage was 0.0639.
The same measure for C22A G68A: 0.298; for C21U G67A: 0.158; for C22G C66U: 0.0308.
Regarding C22A G40U, the self-cleavage is 0.0978.
Take C22A G40A: the self-cleavage came to 0.367.
For C22A C44U the value was 0.0282.
For the variant U20G C86U, the self-cleavage turned out to be 0.214.
Consider U20G G50A, for which the self-cleavage came to 0.151.
For C21G G34C the value was 0.111.
C21U A43C: the self-cleavage was determined as 0.0545.
With C21A G38C, the self-cleavage worked out at 0.185.
Consider C21A U27A, for which the self-cleavage was determined as 0.0504.
Take C21A U27C: the self-cleavage is 0.0519.
For the variant C22G G38U, the self-cleavage came to 0.117.
For C21A G35U, the self-cleavage is 0.0744.
Turning to C22U A51G, the self-cleavage stood at 0.721.
With C22G U65A, the self-cleavage amounted to 0.0504.
Regarding C22G U65G, the self-cleavage is 0.155.
As for C22U G50A, the self-cleavage amounted to 0.745.
As to C22U C64G, the self-cleavage is 0.751.
The same measure for C21G A78U: 0.196; for C21U U27G: 0.0755.
For C21A G81U, the self-cleavage was found to be 0.0665.
As to C22U A43G, the self-cleavage is 0.116.
The same measure for C21U A77U: 0.13; for C22G A87G: 0.106.
As for C22G G55C, the self-cleavage was 0.109.
Take C22G G40A: the self-cleavage is 0.
On to C22G G40C, for which the self-cleavage came to 0.0665.
On to C22U C85A, for which the self-cleavage was found to be 0.59.
With C22A C32A, the self-cleavage came out at 0.0678.
Turning to C22A C32G, the self-cleavage is 0.0437.
Regarding C22A U69C, the self-cleavage turned out to be 0.393.
Consider C22A U69G, for which the self-cleavage is 0.394.
For C21G C62G, the self-cleavage was 0.0755.
Regarding C21A C36G, the self-cleavage stood at 0.0627.
For C21A C36U, the self-cleavage is 0.0339.
With C22U G68A, the self-cleavage was found to be 0.631.
As for C22A U46G, the self-cleavage turned out to be 0.172.
The same measure for C21G U27A: 0; for C22G G29C: 0.0536.
With C22G G29A, the self-cleavage was 0.0886.
Consider C21G A77U, for which the self-cleavage amounted to 0.0426.
Take C22U G40A: the self-cleavage is 0.643.
For C22U G40C, the self-cleavage came to 0.166.
As for C22U G40U, the self-cleavage is 0.394.
As to C22A G53C, the self-cleavage was 0.157.
Take C22A G53A: the self-cleavage is 0.222.
Take C21G C32U: the self-cleavage turned out to be 0.128.
As for C21A C57A, the self-cleavage stood at 0.102.
The same measure for C22A U23G: 0; for C22A U23C: 0.0978.
Regarding C22U G34U, the self-cleavage was 0.145.
In the case of C22U G82C, the self-cleavage is 0.198.
Turning to C22U C24U, the self-cleavage amounted to 0.22.
For C22U C24A the value was 0.302.
For C22A G59C the value was 0.361; for U20G U46C, 0.185; for C22A C49U, 0.338.
For C21A U37G the value was 0.208; for C22U G28U, 0.148.
In the case of C21U C22U, the self-cleavage stood at 0.0702.
Consider U20G U72C, for which the self-cleavage is 0.
As for C21G C75A, the self-cleavage worked out at 0.0415.
Take C21G C75U: the self-cleavage was 0.0378.
For the variant U20G G53A, the self-cleavage was 0.148.
Regarding C21G G74U, the self-cleavage is 0.0554.
Consider C21G G74A, for which the self-cleavage is 0.0511.
As to C21A C58G, the self-cleavage amounted to 0.128.
On to U20G U47A, for which the self-cleavage came out at 0.0831.
As to C21U U37C, the self-cleavage came out at 0.354.
On to C21G G39C, for which the self-cleavage worked out at 0.554.
The same measure for C21G G55A: 0.0941; for C21G G55C: 0.135; for C22U C33G: 0.163.
On to C21U U69A, for which the self-cleavage worked out at 0.148.
Consider C21U U69G, for which the self-cleavage is 0.19.
On to C21U G52C, for which the self-cleavage came to 0.173.
C22A A42C: the self-cleavage turned out to be 0.
For C22A A42G, the self-cleavage worked out at 0.
Regarding C22A A43U, the self-cleavage was 0.0437.
On to C22A G34U, for which the self-cleavage stood at 0.0536.
As to C21A C41U, the self-cleavage came out at 0.181.
As to C21A C41G, the self-cleavage is 0.
C22U G76C: the self-cleavage is 0.763.
Regarding C21U C64G, the self-cleavage is 0.364.
Regarding C21U G53U, the self-cleavage was 0.234.
As for C22U G80C, the self-cleavage worked out at 0.0712.
For C22U G80U the value was 0.11.
With C22U G80A, the self-cleavage was 0.113.
Take U20G G68A: the self-cleavage was found to be 0.0378.
Consider C21G C41G, for which the self-cleavage is 0.095.
Take C22A U65A: the self-cleavage came to 0.237.
As to C21A C84G, the self-cleavage was 0.0314.
In the case of C22G C33G, the self-cleavage worked out at 0.
On to C22G C33A, for which the self-cleavage amounted to 0.
In the case of C22G C33U, the self-cleavage amounted to 0.0268.
In the case of C21A A77C, the self-cleavage turned out to be 0.
With C21A A77U, the self-cleavage was 0.
As to C21A A87G, the self-cleavage stood at 0.0496.
For the variant C21A A87U, the self-cleavage was 0.0915.
Take C21A C33A: the self-cleavage came to 0.026.
For the variant C21A C33U, the self-cleavage is 0.0723.
For C22A C66G the value was 0.373.
The same measure for C21A C61G: 0.0997.
As to C21A U79C, the self-cleavage amounted to 0.111.
In the case of C21U G34C, the self-cleavage was 0.
For the variant C22A U47G, the self-cleavage turned out to be 0.232.
As for C21A G50C, the self-cleavage turned out to be 0.0639.
Consider C21A G50U, for which the self-cleavage worked out at 0.0332.
